Results: publication PMC8938504

Assays:
[1] = molecular target: MBP:RGA5_HMA (wild-type HMA domain of RGA5 fused to maltose-binding protein) (rice (Oryza sativa)) (UniProt F7J0N2); assay: SPR; single-cycle kinetic titration, Biacore T200, 25 °C; […]; 20 mM Tris pH 8, 150 mM NaCl, 0.5 mM DTT, 0.05% P20; steady-state model
the engineered RGA5_HMAs = assay: SPR; […] (single-cycle kinetics, […]; 25 °C; 20 mM Tris pH 8, 150 mM NaCl, 0.5 mM DTT; […]
[2] = molecular target: MBP:RGA5_HMAm1m2 (rice (Oryza sativa)) (UniProt F7J0N2); assay: as above

| Substance | Kd [2] [µM] | also measured |
| --- | --- | --- |
| AVR-PikD (dSP-AVR-PikD, His-tagged) (natural protein) |  | Kd [1]: 8.32 µM |
| 6×His-tagged AVR-PikD (from UniProt C4B8B8 22-113) (natural protein) |  | Kd (the engineered RGA5_HMAs): 0.0005 to 0.0016 µM |
| 6×His-tagged AVR-Pia (natural protein) | 5.9 |  |
| 6×His-tagged AVR1-CO39 (natural protein) | 6.3 |  |
